B1: ExeD secretin from A. hydrophila (cell-free synthesized, His-tagged) (natural protein)
chain: TEYSASFKNADIEEFINTVGKNLSKTIIIEPSVRGKINVRSYDLLNEEQYYQFFLSVLDVYGFAVVPMDNGVLKVVRSKDAKTSAIPVVDETNPGIGDEMVTRVVPVRNVSVRELAPLLRQLNDNAGGGNVVHYDPSNVLLITGRAAVVNRLVEVVRRVDKAGDQEVDIIKLKYASAGEMVRLVTNLNKDGNSQGGNTSLLLAPKVVADERTNSVVVSGEPKARARIIQMVRQLDRDLQSQGNTRVFYLKYGKAKDMVEVLKGVSSSIEADKKGGGTATTAGGGASIGGGKLAISADETTNALVITAQPDVMAELEQVVAKLDIRRAQVLVEAIIVEIADGDGLNLGVQWANTNGGGTQFTNAGPGIGSVAIAAKDYKDNGTTTGLAKLAENFNGMAAGFYQGNWAMLVTALSTNTKSDILSTPSIVTMDNKEASFNVGQEVPVQTGTQNSTSGDTTFSTIERKTVGTKLVVTPQINEGDSVLLTIEQEVSSVGKQATGTDGLGPTFDTRTVKNAVLVKSGETVVLGGLMDEQTKEEVSKVPLLGDIPVLGYLFRSTSNNTSKRNLMVFIRPTILRDANVYSGISSNKYTLFRAQQLDAVAQEGYATSPDRQVLPEYGQDVTMSPEAQKQIELMKTHQQATADGVQPFVQGNK
notes: ExeD, T2SS secretin of Aeromonas hydrophila; a TEV cleavage site linker lies between the His-6 tag and the protein. numbers count on: the mature protein; No TEV cleavage is described; also called pilotin-independent ExeD; GspD; source: cell-free expression system with liposomes, extracted as multimers with Zw3-14, purified (Ni-NTA, Superose 6); copies: 15

Legend:
[1] = biological target: EpsD secretin from V. vulnificus (cell-free synthesized, His-tagged) (V. vulnificus); experiment: cryo-EM structure; purified multimers in TN buffer with Zw3-14, Quantifoil holey carbon grids with an extra 2 nm carbon layer; 2D class averages of top views; C15 symmetry imposed in the reconstruction
[2] = biological target: the molecule itself; experiment: as above

| Molecule | stoichiometry N [1] | stoichiometry N [2] |
| --- | --- | --- |
| EpsD secretin from V. vulnificus (cell-free synthesized, His-tagged) (natural protein) | 15 |  |
| B1 |  | 15 |
